Results reported in patent publication US20250312473A1 (BEONE MEDICINES I, published 2025).
Changes are numbered by the printed parent chain.

B1: Chimeric BGA-3295 (antibody, V domains shown)
VH: QIQVVQSGPELVKPGSLVKISCKASGYTFTNYDINWVKQRPGQGLEWIGWIYPGDGSAYYNEKFKGKATLTADKSSSTAYMQLSSLTSENSAVYFCARWGYGGVPFAYWGQGTLVTVSA
VL: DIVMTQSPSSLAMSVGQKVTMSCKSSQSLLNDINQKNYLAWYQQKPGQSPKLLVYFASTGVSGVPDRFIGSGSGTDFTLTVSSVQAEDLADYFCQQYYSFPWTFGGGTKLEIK
notes: Murine variable domains of BGA-3295, tested as the chimeric antibody; It was captured on an anti-human Fc surface and detected with anti-human IgG; also called Antibody BGA-3295
B2: BGA-4348 (antibody, human IgG1, V domains shown)
VH: QIQLVQSGAEVKKPGSSVKVSCKASGYTFTNYDINWVRQAPGQGLEWMGWIYPGDGSAYYNEKFKGRATITADKSTSTAYMELSSLRSEDTAVYYCARWGYGGVPFAYWGQGTLVTVSS
VL: DIVMTQSPDSLAVSLGERATINCKSSQSLLNDINQKNYLAWYQQKPGQSPKLLVYFASTGVSGVPDRFSGSGSGTDFTLTISSLQAEDVAVYYCQQYYSFPWTFGGGTKVEIK
notes: also called humanized antibody BGA-4348; 1st version of humanized antibody; not shown: Human kappa light chain constant region
B3: BGA-5063 (antibody, human IgG1, V domains shown)
VH: B2 VH with I2V, G56A
VL: B2 VL
notes: Derived from BGA-4348 by framework and CDR mutations; also called humanized antibody BGA-5063; not shown: Human kappa light chain constant region

Legend:
[1] = biological target: T1, human 4Ig-B7H3 over-expressed on NK92mi cells (human, UniProt Q5ZPR3 29-534); experiment: FACS on live NK92mi/B7H3 cells, goat anti-human IgG detection, Test1
T1 construct: Full-length protein on live engineered NK92mi cells; also called NK92mi/B7H3; native B7H3
T1 sequence: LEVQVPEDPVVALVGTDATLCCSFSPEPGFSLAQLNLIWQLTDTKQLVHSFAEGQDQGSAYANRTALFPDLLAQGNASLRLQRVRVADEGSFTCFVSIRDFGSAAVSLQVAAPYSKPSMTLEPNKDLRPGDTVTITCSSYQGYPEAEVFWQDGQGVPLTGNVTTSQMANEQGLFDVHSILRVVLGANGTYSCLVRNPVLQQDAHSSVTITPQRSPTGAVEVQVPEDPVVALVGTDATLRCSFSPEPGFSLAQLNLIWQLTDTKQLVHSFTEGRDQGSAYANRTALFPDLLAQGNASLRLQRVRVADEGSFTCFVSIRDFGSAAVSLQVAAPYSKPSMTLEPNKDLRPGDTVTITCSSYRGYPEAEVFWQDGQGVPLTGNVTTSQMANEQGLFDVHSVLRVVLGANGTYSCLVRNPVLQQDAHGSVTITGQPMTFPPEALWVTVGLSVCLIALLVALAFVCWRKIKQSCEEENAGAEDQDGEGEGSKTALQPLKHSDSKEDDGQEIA
Procedure: (§1) To evaluate the binding activity of humanized antibodies to bind native B7H3 on live cells, NK92mi cells were engineered to over-express human 4Ig-B7H3. Live NK92mi/B7H3 cells were seeded in 96-well plates and were incubated with a series of dilutions of chimeric or humanized antibodies. Goat anti-human IgG was used as second antibody to detect antibody binding to the cell surface. EC₅₀ values for dose-dependent binding to human native B7H3 were determined by fitting the dose-response data to the four-parameter logistic model with GraphPad Prism.

[2] = biological target: T2, ECD of human 4Ig-B7H3 (Sinobiological, Cat: 11188-H08H) (human); experiment: SPR, antibody captured on anti-human Fc surface, Test 1
T2 construct: Bought protein; also called human 4Ig-B7H3 ECD
Source text: (§2) For affinity determination, antibodies were captured by anti-human Fc surface, and used in an affinity assay based on surface plasmon resonance (SPR) technology.

[3] = biological target: T1, human 4Ig-B7H3 over-expressed on NK92mi …; experiment: FACS on live NK92mi/B7H3 cells, goat anti-human IgG detection, Test2
Procedure: as §1

[4] = biological target: T2, ECD of human 4Ig-B7H3 (Sinobiological, …); experiment: SPR, antibody captured on anti-human Fc surface, Test 2
Source text: as §2

| EC50 [1] [pM] | Kd [2] [pM] | koff [2] [s⁻¹] | kon [2] [M⁻¹ s⁻¹] | EC50 [3] [pM] | Kd [4] [pM] | koff [4] [s⁻¹] | kon [4] [M⁻¹ s⁻¹] | Binder |
| --- | --- | --- | --- | --- | --- | --- | --- | --- |
| 1100 | 394 | 0.000284 | 720000 |  |  |  |  | B1 |
| 940 | 330 | 1.04e-05 | 31500 | 940 | 615 | 0.000227 | 369000 | B2 |
|  |  |  |  | 1150 | 916 | 0.000269 | 294000 | B3 |
